IntAct's records for PubMed 10861283

B1: Merlin (Homo sapiens), P35240-3 (parent)
chain: MAGAIASRMSFSSLKRKQPKTFTVRIVTMDAEMEFNCEMKWKGKDLFDLVCRTLGLRETWFFGLQYTIKDTVAWLKMDKKVLDHDVSKEEPVTFHFLAKFYPENAEEELVQEITQHLFFLQVKKQILDEKIYCPPEASVLLASYAVQAKYGDYDPSVHKRGFLAQEELLPKRVINLYQMTPEMWEERITAWYAEHRGRARDEAEMEYLKIAQDLEMYGVNYFAIRNKKGTELLLGVDALGLHIYDPENRLTPKISFPWNEIRNISYSDKEFTIKPLDKKIDVFKFNSSKLRVNKLILQLCIGNHDLFMRRRKADSLEVQQMKAQAREEKARKQMERQRLAREKQMREEAERTRDELERRLLQMKEEATMANEALMRSEETADLLAEKAQITEEEAKLLAQKAAEAEQEMQRIKATAIRTEEEKRLMEQKVLEAEVLALKMAEESERRAKEADQLKQDLQEAREAERRAKQKLLEIATKPTYPPMNPIPAPLPPDIPSFNLIGDSLSFDFKDTDMKRLSMEIEKEKVEYMEKSKHLQEQLNELKTEIEALKLKERETALDILHNENSDRGGSSKHNTIKKPQAQGRRPICI

Tests used:
[1] = variants of: B1; details: with HGS
[2] = variants of: B1; details: with HGS

| Variant | effect of a mutation on the interaction [1] | effect of a mutation on the interaction [2] |
| --- | --- | --- |
| L535P | decreasing interaction strength | decreasing interaction strength |
| Q538P | decreasing interaction strength | decreasing interaction strength |

Continued, values first:

| effect of a mutation on the interaction [1] | effect of a mutation on the interaction [2] | Variant |
| --- | --- | --- |
| decreasing interaction strength | decreasing interaction strength | L46R |
| decreasing interaction strength | decreasing interaction strength | L360P |
